Test results reported in patent US20050208048A1.

Molecular target: human HLA-DR on cells (DRβ1 allele not stated) (human)
Assay: cell-based or functional assay

% Annexin V Propidium Iodide Positive, antibody at 5 µg/ml, with Z-VAD-fmk [%]	% Annexin V Propidium Iodide Positive, antibody at 5 µg/ml, without Z-VAD-fmk [%]	suppression of SEB-triggered T cell proliferation ([3H]thymidine) [%]	Binder
52.7	57.4		murine/human chimeric DN1924 HLA-DR-specific monoclonal antibody (antibody, human IgG2, kappa) heavy: EVKLLESGGGLVQPGGSLKLSCAASGFDFSRYWMSWVRQAPGKGLEWIGEINPDSSTINYTPSLKDKFIISRDNAKNTLYLQMSKVRSEDTALYYCARQPYYYGSSYWYFDVWGAGTTVTVSSAASTKGPSVFPLAPCSRSTSESTAALGCLVKDYFPEPVTVSWNSGALTSGVHTFPAVLQSSGLYSLSSVVTVTSSNFGTQTYTCNVDHKPSNTKVDKTVERKCCVECPPCPAPPAAAPSVFLFPPKPKDTLMISRTPEVTCVVVDVSHEDPEVQFNWYVDGMEVHNAKTKPREEQFNSTFRVVSVLTVVHQDWLNGKEYKCKVSNKGLPAPIEKTISKTKGQPREPQVYTLPPSREEMTKNQVSLTCLVKGFYPSDIAVEWESNGQPENNYKTTPPMLDSDGSFFLYSKLTVDKSRWQQGNVFSCSVMHEALHNHYTQKSLSLSPGK light: ETTVTQSPASLSMAIGEKVTIRCITSTDIDDDMNWYQQKPGEPPKLLISEGNTLRPGVPSRFSSSGYGTDFVFTIENMLSEDVADYYLQSDNLPYTFGGGTKLEIKTVAAPSVFIFPPSDEQLKSGTASVVCLLNNFYPREAKVQWKVDNALQSGNSQESVTEQDSKDSTYSLSSTLTLSKADYEKHKVYACEVTHQGLSSPVTKSFNRGEC
		70	HLA-DR-specific monoclonal antibody L243 (antibody, from another filing, V domains shown) VH: QIQLVQSGPELKKPGETVKISCKASGFTFTNYGMNWVKQAPGKGLKWMGWINTYTREPTYADDFKGRFAFSLETSASTAYLQINNLKNEDTAKYFCARDITAVVPTGFDYWGQGTTLTVSS VL: DIQMTQSPASLSVSVGETVTITCRASENIYSNLAWYRQKQGKSPQLLVFAASNLADGVPSRFSGSGSGTQYSLKINSLQSEDFGDYYCQHFWTTPWAFGGGTNLEIKR
